In PMC7831021 (2021):
Bridges are numbered along the chain shown (N, C = ends). Where no end group is shown, it is not given here.

Molecular target: beta-2-microglobulin (Homo sapiens, UniProt P61769)
Test: SPR

beta-2-microglobulin, sequence (P61769 22-119): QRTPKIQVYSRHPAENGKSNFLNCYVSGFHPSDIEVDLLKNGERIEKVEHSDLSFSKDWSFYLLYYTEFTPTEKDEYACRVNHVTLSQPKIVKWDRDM

CFETAWRQNEWC (disulfide 1-12 (inferred)) [pep331]
Kd: 300 µM
